The values that follow come from patent US20260234211A1, “POLYPEPTIDE HAVING MODIFIED STRUCTURE AND USE THEREOF” (Guangdong Raynovent Biotech Co., Ltd., priority 2023, published 2026).

Holding throughout (experiment): cell-based or functional assay
In test [1] the target is GCG receptor (GCGR).
Test [2] deals with T1, GIP receptor (GIPR).
T1 sequence (P48546 whole entry, species assumed, looked up): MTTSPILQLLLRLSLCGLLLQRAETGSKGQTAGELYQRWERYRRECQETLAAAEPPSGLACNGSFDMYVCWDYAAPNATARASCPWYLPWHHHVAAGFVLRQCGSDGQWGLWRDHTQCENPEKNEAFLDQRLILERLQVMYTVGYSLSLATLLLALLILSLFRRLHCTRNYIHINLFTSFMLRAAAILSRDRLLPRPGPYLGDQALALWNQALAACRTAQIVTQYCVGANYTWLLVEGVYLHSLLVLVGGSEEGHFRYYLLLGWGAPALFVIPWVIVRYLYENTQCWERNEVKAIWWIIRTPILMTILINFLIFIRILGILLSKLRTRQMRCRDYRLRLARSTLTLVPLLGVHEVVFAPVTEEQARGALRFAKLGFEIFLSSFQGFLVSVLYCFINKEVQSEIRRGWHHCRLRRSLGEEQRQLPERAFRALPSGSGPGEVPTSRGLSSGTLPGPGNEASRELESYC

Test [3] deals with GLP-1 receptor (GLP-1R).

Take LY3437943 (peptide): the GCG EC50 (nM), cAMP assay on HEK293 cells with GCGR in test [1] worked out at 0.031 nM. The same substance came in with a GIP-1 EC50 (nM), cAMP assay on CHO cells with GIPR in test [2] of 0.001 nM. Also, in test [3], the GLP-1 EC50 (nM), cAMP assay on HEK293 cells with GLP-1R was determined as 0.014 nM.

On to “Human GLP-1 (7-37) (from UniProt P01275 21-180) (ligand)”, for which the GLP-1 EC50 (nM), cAMP assay on HEK293 cells with GLP-1R in test [3] is 0.001 nM.

“Human Glucagon (from UniProt P01275 53-81) (ligand)” yielded a GCG EC50 (nM), cAMP assay on HEK293 cells with GCGR in test [1] of 0.001 nM.
